Measured values taken from the supplement of paper PMC10899765.

Legend:
Conditions in all cases: 20 nM; 72 h
[1] = test system: MCF10A; experiment: one-nucleolus phenotype percent effect (relative to siNT 0% and siNOL11 100%); higher = more cells with one nucleolus (ribosome biogenesis inhibition)
Procedure: (§1)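 After 72 h, cells were fixed and stained with Hoechst and anti-fibrillarin, and nucleoli per nucleus were counted with CellProfiler. Values are plate-adjusted percent effect for the one-nucleolus and 5+ nucleoli phenotypes, normalised to siNT (0%) and to the positive controls siNOL11 or siKIF11 (100%), as the mean of biological triplicates. Percent viability is the nuclei count relative to siNT.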

[2] = test system: MCF10A; experiment: percent viability (nuclei count relative to siNT); higher = more viable cells
Procedure: as §1

[3] = test system: MCF10A; experiment: 5+ nucleoli phenotype percent effect (relative to siNT 0% and siKIF11 100%); higher = more cells with five or more nucleoli
Procedure: as §1

Row | Sequence | one-nucleolus phenotype percent effect [1] | percent viability [2] | 5+ nucleoli phenotype percent effect [3]
1 | UGUGACUGGUUGACCAGAGGGG [hsa-miR-134] | 31.9% | 28% | -26.5%
2 | UGUGACUUCUCCCCUGCCACAG [hsa-miR-6820-3p] | 22.3% | 32.3% | -7.76%
3 | UGUGACUUUAAGGGAAAUGGCG [hsa-miR-3164] | 19.5% | 22.9% | 22%
4 | UGUGAGGUUGGCAUUGUUGUCU [hsa-miR-1294] | 19% | 28.9% | -10.7%
5 | UGUGAUAUCAUGGUUCCUGGGA [hsa-miR-3689a-5p] | 6.87% | 37.9% | -5.22%
6 | UGUGAUAUCAUGGUUCCUGGGA [hsa-miR-3689b-5p] | 19% | 23.6% | -25.9%
7 | UGUGAUAUCAUGGUUCCUGGGA [hsa-miR-3689e] | 4.57% | 30.9% | -30.6%
8 | UGUGAUAUCGUGCUUCCUGGGA [hsa-miR-3689f] | -21.8% | 109% | 17.5%
9 | UGUGCAAAUCCAUGCAAAACUGA [hsa-miR-19b-3p] | 4.13% | 82.4% | -2.64%
10 | UGUGCAAAUCUAUGCAAAACUGA [hsa-miR-19a-3p] | -14.6% | 141% | 34.4%
11 | UGUGCAGCAGGCCAACCGAGA [hsa-miR-3944-5p] | -7.88% | 69% | 4.63%
12 | UGUGCGCAGGGAGACCUCUCCC [hsa-miR-933] | 4.65% | 78.3% | -8.45%
13 | UGUGCUUGCUCGUCCCGCCCGCA [hsa-miR-636] | 5.25% | 111% | -6.7%
14 | UGUGGAAGGUAGACGGCCAGAGA [hsa-miR-3190-3p] | 42.7% | 19.8% | -44%
15 | UGUGGACAGUGAGGUAGAGGGAGU [hsa-miR-3138] | -2.72% | 47.9% | 2.7%
16 | UGUGGGACUGCAAAUGGGAG [hsa-miR-4648] | 19.7% | 41.5% | -30.5%
17 | UGUGGGAUCUGGAGGCAUCUGG [hsa-miR-4654] | 6.3% | 38.8% | -29.4%
18 | UGUGGGUGGGAAGGACUGGAUU [hsa-miR-6748-5p] | 30.1% | 22.6% | -25.6%
19 | UGUGGGUUCUGGGUUGGGGUGA [hsa-miR-6793-5p] | 30.2% | 14.3% | -24.1%
20 | UGUGGUAGAUAUAUGCACGAU [hsa-miR-4536-5p] | 26.2% | 25.9% | -25.4%
21 | UGUGUACACACGUGCCAGGCGCU [hsa-miR-3177-5p] | -22.2% | 131% | 61.9%
22 | UGUGUCACUCGAUGACCACUGU [hsa-miR-597] | 13.9% | 47.8% | -3.83%
23 | UGUGUCCCAUUAUUGGUGAUU [hsa-miR-3657] | 32.2% | 46.6% | -31.6%
24 | UGUGUCCGGGAAGUGGAGGAGG [hsa-miR-4669] | 2.82% | 74.6% | -24.1%
25 | UGUGUGUGUAGAGGAAGAAGGGA [hsa-miR-6867-5p] | 64.8% | 13.1% | -22.4%
